Assay results published in PMC4032258, “Transmembrane Recognition of the Semaphorin Co-Receptors Neuropilin 1 and Plexin A1: Coarse-Grained Simulations” (PLoS ONE, 2014).

Target: the molecule itself
Test: two-hybrid; bacterial adenylate cyclase two-hybrid (BACTH) in E. coli BTH101 (cya-); TM sequences fused to T18 and T25 fragments of CyaA behind an OmpA signal sequence; read out on MacConkey indicator plates and by beta-galactosidase activity, normalised to GpA-GpA as 100%

B1: Neuropilin 1 transmembrane domain (NRP1 TM), BACTH fusion (domain or fragment, human)
chain: ILITIIAMSALGVLLGAVCGVVLYRKR
notes: not part of NRP1; Modified pKTN25 and pUT18 plasmids; also called NRP1 TM domain; source: bacterial two-hybrid fusion (BACTH), E. coli BTH101 (cya-), cotransformed plasmids; not shown: T25 or T18 fragment of Bordetella pertussis adenylate cyclase CyaA, C-terminal, kept
  interaction propensity (beta-galactosidase activity) relative to GpA-GpA: ~50%
